Results on 27 substances are retold here after patent publication US20060134709A1.

One experiment addresses soluble FcγRIIB (human) (UniProt P31994). As to the kind of experiment: ELISA.
Experiment [1] deals with soluble monomeric FcγRIIIA-linker-AVITAG (human) (UniProt P08637). Nature of the experiment: ELISA.

Consider ch4-4-20 A231V, Q386H, V412M (antibody), for which the fold increase vs wt with soluble FcγRIIB (human) was 6 x; in experiment [1], 1.5 x.
The matching figures for ch4-4-20 P247L, I253N, K334N (antibody): 2.5 x and 3 x.
Consider “ch4-4-20 T215P, K274N, A287G, K334N, L365V, P396L (antibody)”, for which the fold increase vs wt in the experiment with soluble FcγRIIB (human) was found to be 4 x; in experiment [1], 2 x.
Consider ch4-4-20 F241L, E258G (antibody), for which the fold increase vs wt in the experiment with soluble FcγRIIB (human) was 2.5 x; in experiment [1], 2 x.
Regarding “ch4-4-20 P343S, P353L, S375I, S383N (antibody)”, the fold increase vs wt stood at 6 x with soluble FcγRIIB (human) and 0.5 x in experiment [1].
As for ch4-4-20 V215I, K290V, P396L (antibody), the fold increase vs wt with soluble FcγRIIB (human) was 4.6 x; in experiment [1] it was 2.2 x.
In the case of ch4-4-20 V427A, P396L (antibody), the fold increase vs wt stood at 4.7 x in the experiment with soluble FcγRIIB (human) and 1.9 x in experiment [1].
Consider “ch4-4-20 V348M, K334N, F275I, Y202M, K147T (antibody)”, for which the values for the fold increase vs wt (with soluble FcγRIIB (human); in experiment [1]) were 0.75 x and 0.5 x, respectively.
“ch4-4-20 P244H, L358M, V379M, N384K, V397M (antibody)”: the fold increase vs wt in the experiment with soluble FcγRIIB (human) was determined as 1.5 x; in experiment [1], 1.75 x.
As to ch4-4-20 S408I, V215I, V125L (antibody), the fold increase vs wt in the experiment with soluble FcγRIIB (human) amounted to 0.75 x; in experiment [1], 0.5 x.
Take “ch4-4-20 K210N, K222I, K320M, P396L (antibody)”: the fold increase vs wt is 8.7 x in the experiment with soluble FcγRIIB (human) and 2.7 x in experiment [1].
Regarding ch4-4-20 V240I, V281M (antibody), the fold decrease vs wt (with soluble FcγRIIB (human); in experiment [1]) was 0.25 x throughout.
Consider ch4-4-20 P244H, P396L (antibody), for which the results for the fold increase vs wt (with soluble FcγRIIB (human); in experiment [1]) were 4 x and 2.5 x, respectively.
The matching figures for ch4-4-20 K326I, S408N, P396L (antibody): 9.3 x and 4 x.
Regarding ch4-4-20 Q419H, P396L (antibody), the fold increase vs wt in the experiment with soluble FcγRIIB (human) came to 6.9 x; in experiment [1], 2 x.
Consider ch4-4-20 P227S, P396L (antibody), for which the fold increase vs wt worked out at 4 x with soluble FcγRIIB (human) and 1.5 x in experiment [1].
The matching figures for ch4-4-20 K246N, Q419R, P396L (antibody): 4.8 x and 1.1 x.
For “ch4-4-20 F243L, V305I, A378D, F404S, P396L (antibody)”, the fold increase vs wt with soluble FcγRIIB (human) amounted to 5.4 x; in experiment [1], 1.6 x.
As for “ch4-4-20 F275L, Q362H, N384K, P396L (antibody)”, the fold increase vs wt in the experiment with soluble FcγRIIB (human) was 3.7 x; in experiment [1], 2.2 x.
Regarding “ch4-4-20 K290E, V369A, T393A, P396L (antibody)”, the figures for the fold increase vs wt (with soluble FcγRIIB (human); in experiment [1]) were 6.7 x and 1.3 x, respectively.
For ch4-4-20 Q419L, P396L (antibody), the fold increase vs wt with soluble FcγRIIB (human) was found to be 6.1 x; in experiment [1], 2.2 x.
With ch4-4-20 N384K, P396L (antibody), the fold increase vs wt was 5.2 x with soluble FcγRIIB (human) and 2.2 x in experiment [1].
ch4-4-20 E258D, N384K (antibody): the values for the fold increase vs wt (with soluble FcγRIIB (human); in experiment [1]) were 4 x and 1.25 x, respectively.
In the case of ch4-4-20 P247L (antibody), the fold increase vs wt is 4 x with soluble FcγRIIB (human) and 0.5 x in experiment [1].
With “ch4-4-20 D221Y, M252I, A330G, A339T, T359N, V422I, H433L (antibody)”, the fold increase vs wt with soluble FcγRIIB (human) amounted to 6 x; in experiment [1] it was 2.5 x.
The matching figures for ch4-4-20 E216D, E345K, S375I (antibody): 4 x and 0.5 x.
The matching figures for ch4-4-20 G385E, P247H (antibody): 0.75 x and 1 x.
